The record followed here is patent US20140255406A1.

In experiment [1] the target is human non-cleavable membrane bound TNFα on CHO cells (human) (UniProt P01375). Briefly: cell-based or functional assay.
For a further experiment, the target named is human TNFα (human) (UniProt P01375). Briefly: cell-based or functional assay.
Sequence of human TNFα (human) (P01375 77-233 limits assumed): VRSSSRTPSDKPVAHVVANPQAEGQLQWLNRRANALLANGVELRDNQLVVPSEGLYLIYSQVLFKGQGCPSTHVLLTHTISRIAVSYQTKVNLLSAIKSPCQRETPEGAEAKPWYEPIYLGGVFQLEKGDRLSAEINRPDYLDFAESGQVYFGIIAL

Sequence of human non-cleavable membrane bound TNFα on CHO cells (human) (P01375 whole entry): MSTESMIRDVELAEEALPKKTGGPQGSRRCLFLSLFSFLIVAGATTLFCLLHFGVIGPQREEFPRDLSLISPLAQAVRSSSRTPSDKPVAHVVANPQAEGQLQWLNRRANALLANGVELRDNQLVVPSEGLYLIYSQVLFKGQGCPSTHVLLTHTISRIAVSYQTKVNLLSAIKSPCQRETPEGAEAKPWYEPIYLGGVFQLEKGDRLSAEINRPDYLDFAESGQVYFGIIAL

In turn, adalimumab with IgG4 isotype (antibody) returned an IC50, inhibition of killing of L929 cells by human non-cleavable membrane bound TNFα CHO cells (MTT) in experiment [1] of 0.669 nM. Further, in the experiment with human TNFα (human), the Average % inhibition of human TNFα-induced CXCL1 production in vivo (mouse plasma) was determined as 89.4% and the IC50, inhibition of TNFα-induced killing of L929 cells (MTT) is 0.243 nM.
